# Test results from patent US20050282743A1, “Molecular interactions in cells” (Arbor Vita Corporation, priority 2001, published 2005).
# T1: GST-MUPP1 PDZ domain 5 (Homo sapiens (Human)), O75970
# T1 chain: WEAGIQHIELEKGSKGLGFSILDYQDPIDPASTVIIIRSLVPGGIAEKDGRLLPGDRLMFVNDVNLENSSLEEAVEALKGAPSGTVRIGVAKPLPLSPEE
# T2: GST-ZO-1 PDZ domain 2 (Rattus norvegicus (Rat)), A0A0G2
# T2 chain: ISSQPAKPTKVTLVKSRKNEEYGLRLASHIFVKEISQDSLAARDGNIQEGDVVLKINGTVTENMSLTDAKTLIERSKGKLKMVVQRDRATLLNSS
# T3: GST-SYNTENIN PDZ domain 1 (Homo sapiens (Human)), O00560
# T3 chain: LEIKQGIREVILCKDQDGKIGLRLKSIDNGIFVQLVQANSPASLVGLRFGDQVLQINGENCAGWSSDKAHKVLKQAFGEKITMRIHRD
# T4: GST-novel PDZ gene PDZ domain 1 (Homo sapiens (Human)), Q9H5P4
# T4 chain: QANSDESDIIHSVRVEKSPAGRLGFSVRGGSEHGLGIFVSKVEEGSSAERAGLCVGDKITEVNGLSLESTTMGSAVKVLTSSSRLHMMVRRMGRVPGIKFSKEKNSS
# T5: GST-KIAA0973 PDZ domain 1 (Homo sapiens (Human)), Q9Y2H9
# T5 chain: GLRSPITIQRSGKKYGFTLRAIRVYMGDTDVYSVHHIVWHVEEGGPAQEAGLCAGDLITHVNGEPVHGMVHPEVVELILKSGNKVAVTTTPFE
# T6: GST-NOS1 PDZ domain 1 (Homo sapiens (Human)), P29475
# T6 chain: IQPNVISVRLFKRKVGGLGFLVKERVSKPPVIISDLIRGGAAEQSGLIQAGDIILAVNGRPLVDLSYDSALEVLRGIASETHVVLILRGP
# T7: GST-MUPP1 PDZ domain 11 (Homo sapiens (Human)), O75970
# T7 chain: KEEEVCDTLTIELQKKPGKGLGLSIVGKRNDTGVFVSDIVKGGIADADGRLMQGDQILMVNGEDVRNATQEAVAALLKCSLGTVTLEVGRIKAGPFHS
# T8: GST-KIAA0147 PDZ domain 4 (Homo sapiens (Human)), Q14160
# T8 chain: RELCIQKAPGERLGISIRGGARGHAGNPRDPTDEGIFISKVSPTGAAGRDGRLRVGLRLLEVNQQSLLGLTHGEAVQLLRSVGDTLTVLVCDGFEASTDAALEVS
# T9: GST-EZRIN Binding Protein 50 PDZ domain 1 (Homo sapiens (Human)), O14745
# T9 chain: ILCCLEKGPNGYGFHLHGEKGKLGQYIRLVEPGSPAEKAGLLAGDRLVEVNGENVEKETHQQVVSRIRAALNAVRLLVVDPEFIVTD
# T10: GST-NeDLG PDZ domains 1, 2, Q92796
# T10 chain: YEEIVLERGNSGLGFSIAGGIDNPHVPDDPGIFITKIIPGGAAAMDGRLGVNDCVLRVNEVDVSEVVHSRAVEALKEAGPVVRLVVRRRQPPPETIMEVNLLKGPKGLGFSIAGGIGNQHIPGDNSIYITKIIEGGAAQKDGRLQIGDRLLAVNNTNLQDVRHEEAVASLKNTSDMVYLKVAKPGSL
# T11: GST-NeDLG PDZ domain 3 (Mus musculus (Mouse)), P70175
# T11 chain: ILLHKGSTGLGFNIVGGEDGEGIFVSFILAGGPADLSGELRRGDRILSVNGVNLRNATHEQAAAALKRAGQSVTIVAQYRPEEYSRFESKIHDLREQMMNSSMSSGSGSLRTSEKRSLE
# T12: GST-MUPP1 PDZ domain 10 (Homo sapiens (Human)), O75970
# T12 chain: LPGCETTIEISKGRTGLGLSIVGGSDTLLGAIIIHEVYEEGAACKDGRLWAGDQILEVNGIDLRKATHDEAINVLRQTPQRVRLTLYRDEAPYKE
# T13: GST-DLG2 PDZ domain 2 (Homo sapiens (Human)), Q15700
# T13 chain: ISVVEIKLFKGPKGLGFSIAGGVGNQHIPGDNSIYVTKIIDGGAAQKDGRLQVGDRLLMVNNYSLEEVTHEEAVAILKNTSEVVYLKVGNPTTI
# T14: GST-ZO-1 PDZ domain 1 (Rattus norvegicus (Rat)), A0A0G2
# T14 chain: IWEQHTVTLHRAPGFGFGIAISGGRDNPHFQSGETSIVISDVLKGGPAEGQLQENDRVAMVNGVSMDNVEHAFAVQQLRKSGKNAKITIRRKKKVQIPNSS
# T15: GST-KIAA0147 PDZ domain 3 (Homo sapiens (Human)), Q14160
# T15 chain: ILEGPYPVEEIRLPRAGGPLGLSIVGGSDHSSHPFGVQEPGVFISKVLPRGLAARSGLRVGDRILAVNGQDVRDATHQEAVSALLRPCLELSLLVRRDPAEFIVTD
# Molecular target: T1, GST-MUPP1 PDZ domain 5 (Homo sapiens …)
# Assay: G' assay
# Also: key of the grades not given here.
row,Classification,Binder
1,5 A450 class,"ELLQFCRTPNPALKNGQYWV (modifications not checked) [CSPG4 (chondroitin sulfae proteoglycan 4, melanoma-associated)]"
2,2 A450 class,KTMPAAMYRLLTAQEQPVYI (modifications not checked) [MINT-1]
3,1 A450 class,TQGFPGPATWRRISSLESEV (modifications not checked) [NMDA Glutamate Receptor 2C (cysteine-free)]

# Molecular target: T2, GST-ZO-1 PDZ domain 2 (Rattus …)
# Assay: G' assay
row,Classification,Binder
1,2 A450 class,ILNSIQVMRAQMNQIQSVEV (modifications not checked) [ephrin B2]
2,4 A450 class,"ELLQFCRTPNPALKNGQYWV (modifications not checked) [CSPG4 (chondroitin sulfae proteoglycan 4, melanoma-associated)]"
3,4 A450 class,HDFRRAFKKILARGDRKRIV (modifications not checked) [alpha-2A Adrenergic receptor]

# Molecular target: T3, GST-SYNTENIN PDZ domain 1 (Homo sapiens …)
# Assay: G' assay
row,Classification,Binder
1,1 A450 class,ILNSIQVMRAQMNQIQSVEV (modifications not checked) [ephrin B2]
2,2 A450 class,"ELLQFCRTPNPALKNGQYWV (modifications not checked) [CSPG4 (chondroitin sulfae proteoglycan 4, melanoma-associated)]"
3,3 A450 class,KTMPAAMYRLLTAQEQPVYI (modifications not checked) [MINT-1]

# Molecular target: GST-PSD95 PDZ domains 1, 2, 3 (Homo sapiens), P78352
# Assay: G' assay
# Sequence of GST-PSD95 PDZ domains 1, 2, 3 (Homo sapiens), P78352 (P78352 62-395): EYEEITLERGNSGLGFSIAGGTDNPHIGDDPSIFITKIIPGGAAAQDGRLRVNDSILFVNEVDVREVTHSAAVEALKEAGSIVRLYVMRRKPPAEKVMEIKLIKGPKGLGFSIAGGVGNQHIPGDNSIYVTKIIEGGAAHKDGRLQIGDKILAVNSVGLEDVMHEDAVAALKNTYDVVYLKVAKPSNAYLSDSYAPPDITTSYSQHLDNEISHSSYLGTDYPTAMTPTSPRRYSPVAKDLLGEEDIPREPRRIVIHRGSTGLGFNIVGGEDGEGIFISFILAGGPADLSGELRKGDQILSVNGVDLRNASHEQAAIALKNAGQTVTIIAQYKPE
row,Classification,Binder
1,5 A450 class,TQGFPGPATWRRISSLESEV (modifications not checked) [NMDA Glutamate Receptor 2C (cysteine-free)]

# Molecular target: T4, GST-novel PDZ gene PDZ domain 1 (Homo …)
# Assay: G' assay
row,Classification,Binder
1,2 A450 class,ILNSIQVMRAQMNQIQSVEV (modifications not checked) [ephrin B2]

# Molecular target: T5, GST-KIAA0973 PDZ domain 1 (Homo sapiens …)
# Assay: G' assay
row,Classification,Binder
1,2 A450 class,ILNSIQVMRAQMNQIQSVEV (modifications not checked) [ephrin B2]
2,1 A450 class,TQGFPGPATWRRISSLESEV (modifications not checked) [NMDA Glutamate Receptor 2C (cysteine-free)]

# Molecular target: GST-TAX IP2 PDZ domain 1 [GST: P08515]
# Assay: G' assay
# Sequence of GST-TAX IP2 PDZ domain 1 [GST: P08515] (P08515 whole entry, the tested form may be a part): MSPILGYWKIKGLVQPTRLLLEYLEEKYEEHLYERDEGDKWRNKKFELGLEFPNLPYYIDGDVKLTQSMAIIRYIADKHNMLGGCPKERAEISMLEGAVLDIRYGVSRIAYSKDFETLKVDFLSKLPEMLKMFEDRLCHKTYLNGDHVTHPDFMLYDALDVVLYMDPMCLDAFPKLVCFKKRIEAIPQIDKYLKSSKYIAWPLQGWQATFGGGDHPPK
row,Classification,Binder
1,4 A450 class,TQGFPGPATWRRISSLESEV (modifications not checked) [NMDA Glutamate Receptor 2C (cysteine-free)]

# Molecular target: T6, GST-NOS1 PDZ domain 1 (Homo sapiens …)
# Assay: G' assay
row,Classification,Binder
1,2 A450 class,"ELLQFCRTPNPALKNGQYWV (modifications not checked) [CSPG4 (chondroitin sulfae proteoglycan 4, melanoma-associated)]"
2,4 A450 class,KTMPAAMYRLLTAQEQPVYI (modifications not checked) [MINT-1]
3,1 A450 class,TQGFPGPATWRRISSLESEV (modifications not checked) [NMDA Glutamate Receptor 2C (cysteine-free)]

# Molecular target: T7, GST-MUPP1 PDZ domain 11 (Homo sapiens …)
# Assay: G' assay
row,Classification,Binder
1,2 A450 class,ILNSIQVMRAQMNQIQSVEV (modifications not checked) [ephrin B2]
2,5 A450 class,"ELLQFCRTPNPALKNGQYWV (modifications not checked) [CSPG4 (chondroitin sulfae proteoglycan 4, melanoma-associated)]"
3,5 A450 class,KTMPAAMYRLLTAQEQPVYI (modifications not checked) [MINT-1]

# Molecular target: GST-KIAA1634 PDZ domain 4 (Homo sapiens (Human)), Q5TCQ9
# Assay: G' assay
# Sequence of GST-KIAA1634 PDZ domain 4 (Homo sapiens (Human)), Q5TCQ9 (Q5TCQ9 844-945): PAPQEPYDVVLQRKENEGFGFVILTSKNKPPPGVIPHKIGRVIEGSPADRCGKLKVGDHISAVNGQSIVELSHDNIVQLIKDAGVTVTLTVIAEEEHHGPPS
row,Classification,Binder
1,1 A450 class,TQGFPGPATWRRISSLESEV (modifications not checked) [NMDA Glutamate Receptor 2C (cysteine-free)]

# Molecular target: T8, GST-KIAA0147 PDZ domain 4 (Homo sapiens …)
# Assay: G' assay
row,Classification,Binder
1,2 A450 class,ILNSIQVMRAQMNQIQSVEV (modifications not checked) [ephrin B2]

# Molecular target: GST-KIAA1634 PDZ domain 1 (Homo sapiens (Human)), Q5TCQ9
# Assay: G' assay
# Sequence of GST-KIAA1634 PDZ domain 1 (Homo sapiens (Human)), Q5TCQ9 (Q5TCQ9 401-502): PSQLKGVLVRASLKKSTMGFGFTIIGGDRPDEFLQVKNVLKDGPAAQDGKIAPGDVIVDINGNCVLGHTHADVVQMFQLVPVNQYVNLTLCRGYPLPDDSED
row,Classification,Binder
1,5 A450 class,"ELLQFCRTPNPALKNGQYWV (modifications not checked) [CSPG4 (chondroitin sulfae proteoglycan 4, melanoma-associated)]"
2,5 A450 class,TQGFPGPATWRRISSLESEV (modifications not checked) [NMDA Glutamate Receptor 2C (cysteine-free)]

# Molecular target: T9, GST-EZRIN Binding Protein 50 PDZ domain …
# Assay: G' assay
row,Classification,Binder
1,1 A450 class,ILNSIQVMRAQMNQIQSVEV (modifications not checked) [ephrin B2]

# Molecular target: T10, GST-NeDLG PDZ domains 1, 2, Q92796
# Assay: G' assay
row,Classification,Binder
1,5 A450 class,TQGFPGPATWRRISSLESEV (modifications not checked) [NMDA Glutamate Receptor 2C (cysteine-free)]

# Molecular target: GST-KIAA0147 PDZ domain 1 (Homo sapiens (Human)), Q14160
# Assay: G' assay
# Sequence of GST-KIAA0147 PDZ domain 1 (Homo sapiens (Human)), Q14160 (Q14160 other isoform, or with tags, fused parts or gaps): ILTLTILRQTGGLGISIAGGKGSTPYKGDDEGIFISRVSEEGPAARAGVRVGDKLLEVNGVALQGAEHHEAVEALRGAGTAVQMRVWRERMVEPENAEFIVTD
row,Classification,Binder
1,5 A450 class,TQGFPGPATWRRISSLESEV (modifications not checked) [NMDA Glutamate Receptor 2C (cysteine-free)]

# Molecular target: T11, GST-NeDLG PDZ domain 3 (Mus musculus …)
# Assay: G' assay
row,Classification,Binder
1,1 A450 class,ILNSIQVMRAQMNQIQSVEV (modifications not checked) [ephrin B2]
2,1 A450 class,TQGFPGPATWRRISSLESEV (modifications not checked) [NMDA Glutamate Receptor 2C (cysteine-free)]

# Molecular target: T12, GST-MUPP1 PDZ domain 10 (Homo sapiens …)
# Assay: G' assay
row,Classification,Binder
1,4 A450 class,"ELLQFCRTPNPALKNGQYWV (modifications not checked) [CSPG4 (chondroitin sulfae proteoglycan 4, melanoma-associated)]"
2,1 A450 class,KTMPAAMYRLLTAQEQPVYI (modifications not checked) [MINT-1]
3,1 A450 class,TQGFPGPATWRRISSLESEV (modifications not checked) [NMDA Glutamate Receptor 2C (cysteine-free)]

# Molecular target: T13, GST-DLG2 PDZ domain 2 (Homo sapiens …)
# Assay: G' assay
row,Classification,Binder
1,5 A450 class,TQGFPGPATWRRISSLESEV (modifications not checked) [NMDA Glutamate Receptor 2C (cysteine-free)]

# Molecular target: GST-BAI-1 Associated Protein PDZ domain 3 (Homo sapiens (Human)), Q96QZ7
# Assay: G' assay
# Sequence of GST-BAI-1 Associated Protein PDZ domain 3 (Homo sapiens (Human)), Q96QZ7 (Q96QZ7 other isoform, or with tags, fused parts or gaps): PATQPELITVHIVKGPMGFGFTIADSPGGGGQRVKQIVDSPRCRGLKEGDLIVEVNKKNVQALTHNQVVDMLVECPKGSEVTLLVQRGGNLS
row,Classification,Binder
1,1 A450 class,TQGFPGPATWRRISSLESEV (modifications not checked) [NMDA Glutamate Receptor 2C (cysteine-free)]

# Molecular target: T14, GST-ZO-1 PDZ domain 1 (Rattus …)
# Assay: G' assay
row,Classification,Binder
1,3 A450 class,ILNSIQVMRAQMNQIQSVEV (modifications not checked) [ephrin B2]
2,5 A450 class,"ELLQFCRTPNPALKNGQYWV (modifications not checked) [CSPG4 (chondroitin sulfae proteoglycan 4, melanoma-associated)]"
3,1 A450 class,KTMPAAMYRLLTAQEQPVYI (modifications not checked) [MINT-1]

# Molecular target: T15, GST-KIAA0147 PDZ domain 3 (Homo sapiens …)
# Assay: G' assay
row,Classification,Binder
1,1 A450 class,TQGFPGPATWRRISSLESEV (modifications not checked) [NMDA Glutamate Receptor 2C (cysteine-free)]
